T1: Mcm5 (Drosophila melanogaster, UniProt Q9VGW6 1-733)
T1 construct: Mcm5, Drosophila melanogaster, subunit of Mcm2-7; source: Hi5 cells, co-infection with baculoviruses; purified as part of the CMG (anti-FLAG agarose, Mono S, Mono Q) and in whole cell lysate
T1 sequence (looked up): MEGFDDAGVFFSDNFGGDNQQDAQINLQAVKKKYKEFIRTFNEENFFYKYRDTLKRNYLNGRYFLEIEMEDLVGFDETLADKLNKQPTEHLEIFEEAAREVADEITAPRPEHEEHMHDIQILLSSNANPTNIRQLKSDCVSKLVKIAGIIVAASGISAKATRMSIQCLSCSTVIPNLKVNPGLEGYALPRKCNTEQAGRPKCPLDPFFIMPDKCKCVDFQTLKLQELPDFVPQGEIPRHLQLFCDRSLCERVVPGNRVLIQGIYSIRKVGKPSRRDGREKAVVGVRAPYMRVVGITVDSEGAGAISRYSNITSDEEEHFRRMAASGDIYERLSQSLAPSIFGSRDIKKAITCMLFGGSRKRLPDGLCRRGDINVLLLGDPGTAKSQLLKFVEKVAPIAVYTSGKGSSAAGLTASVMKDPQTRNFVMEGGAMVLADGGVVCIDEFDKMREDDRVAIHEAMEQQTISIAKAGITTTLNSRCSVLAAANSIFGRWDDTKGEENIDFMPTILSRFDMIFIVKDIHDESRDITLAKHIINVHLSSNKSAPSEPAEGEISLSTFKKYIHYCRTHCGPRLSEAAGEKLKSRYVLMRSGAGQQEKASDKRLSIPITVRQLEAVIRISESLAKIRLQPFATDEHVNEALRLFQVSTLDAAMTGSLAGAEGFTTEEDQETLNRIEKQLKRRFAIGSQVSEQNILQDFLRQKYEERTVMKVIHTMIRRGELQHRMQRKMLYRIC

T2: Mcm2 (Drosophila melanogaster, UniProt P49735 1-887)
T2 construct: Mcm2, Drosophila melanogaster, subunit of Mcm2-7; source: Hi5 cells, co-infection with baculoviruses; purified as part of the CMG (anti-FLAG agarose, Mono S, Mono Q) and in whole cell lysate
T2 sequence (looked up): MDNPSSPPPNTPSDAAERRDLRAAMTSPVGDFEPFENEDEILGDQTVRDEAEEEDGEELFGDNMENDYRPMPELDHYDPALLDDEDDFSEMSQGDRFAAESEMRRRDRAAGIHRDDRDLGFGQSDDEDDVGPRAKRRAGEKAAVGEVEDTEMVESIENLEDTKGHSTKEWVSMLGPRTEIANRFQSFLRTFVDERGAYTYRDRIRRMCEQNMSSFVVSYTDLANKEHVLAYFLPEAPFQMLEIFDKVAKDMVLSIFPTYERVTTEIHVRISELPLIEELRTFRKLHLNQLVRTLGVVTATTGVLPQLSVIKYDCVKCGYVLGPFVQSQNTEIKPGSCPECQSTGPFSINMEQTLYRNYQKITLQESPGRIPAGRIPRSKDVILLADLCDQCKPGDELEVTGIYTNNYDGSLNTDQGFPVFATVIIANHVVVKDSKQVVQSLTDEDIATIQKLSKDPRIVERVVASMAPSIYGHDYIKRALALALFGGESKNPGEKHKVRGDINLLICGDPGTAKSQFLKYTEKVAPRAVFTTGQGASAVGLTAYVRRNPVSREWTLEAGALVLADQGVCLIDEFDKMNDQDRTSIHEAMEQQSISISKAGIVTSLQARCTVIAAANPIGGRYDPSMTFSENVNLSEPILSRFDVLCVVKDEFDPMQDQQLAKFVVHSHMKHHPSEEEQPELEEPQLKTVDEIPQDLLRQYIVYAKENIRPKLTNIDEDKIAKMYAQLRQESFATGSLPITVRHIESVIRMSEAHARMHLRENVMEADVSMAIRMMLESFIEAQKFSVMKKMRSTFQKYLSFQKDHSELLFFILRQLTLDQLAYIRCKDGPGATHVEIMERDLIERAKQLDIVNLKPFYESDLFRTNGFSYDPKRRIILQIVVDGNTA

B1: Cdc45 (natural protein, Drosophila melanogaster, UniProt O96989 1-575, looked up)
chain: MFVQDLRNDFYRQLVGKRILIVVNYDIDAICASRILQALFKYDHMLYTVVPIMGVTGLKRAYGEHQGDVKYVVLVNCGGCVDIVELLQPSDDVTFFICDSHRPLDVCNIYSDRQVCILGDASLEENIPAFETIFYDSEGEDEDEDESSDTEQQHDDSGAGESDQEDQAPRSRKLSRLERHEQRILKQRARRQWESERDRIMFEYTQFSYYGRSAALMVFELAWKLSKDNMDLLWWAIVGITEQLLLGKIESGAYTLELEQIQSHVSRLTNKTNDQNTMSASKITFENDLHLVLYRHWPVTESMRYSRYSSCQLKLWTLRGEKRLHELLLEMGLPLVHARQTYGAMDLVLRKEFFSMVERLAEKYDIADIVYGTFTLSYGYRSRYAAADYVYALLAIMESVKKHKTPEDCFLEASDALSRQHKQLLSAGIDQAKLLHAAVFRQVQSSLEARQVHSAGSFFYYVLQEEHAFFSYPYALGLLARFLLRGHVATSRARQASDLPLIASCPLNASEGMCLLVGIVPVREDSPRNFFGKAFEQAAQKSGVALLQDFFEPAVVQLRQSDLTRFLDSLTVLLA
notes: Cdc45, Drosophila melanogaster; also called DmCdc45; source: Hi5 cells, co-infection with baculoviruses; purified as part of the CMG (anti-FLAG agarose, Mono S, Mono Q) and in whole cell lysate
B2: Psf1 (natural protein, Drosophila melanogaster, UniProt Q9W0I7 1-202, looked up)
chain: MSRQTKMFGEKAFDLLKELERSSQTIPAFDDDGVRQVLEEIKAIFEENVAQASSYNASGDRSLWPLLNFRHAALQRNKRCLLAYLYERCRRIKALRWEFGPIIPGDIKQALCEPEVTFFNNYSKSLAAYMCSAGYNQGLPIDLTNNLRPPKSLYIEVRCMEDYGKFELDDGEVIHLKKNSQHYLPRAQVESLVRQGILHHIA
notes: Psf1, Drosophila melanogaster, subunit of GINS; the printed B-domain region 185-202 ends at the C-terminus; source: Hi5 cells, co-infection with baculoviruses; purified as part of the CMG (anti-FLAG agarose, Mono S, Mono Q) and in whole cell lysate

The target in test [1] is Cdc45/Mcm2-7/GINS (CMG) helicase (Drosophila melanogaster) (UniProt P49735). The experiment in a line: negative-stain EM, reference-free 2D class averages; purified CMG with 3'-tailed DNA and ATPγS; dimeric particles compared with 2D projections of double-hexamer models in six registers.
Test [2] has as its target T1, Mcm5. The experiment in a line: negative-stain EM single-particle reconstruction; purified CMG mixed with a 20 bp duplex DNA bearing a 3' dT40 tail and 0.1 mM ATPγS, Superose 6 peak fraction, uranyl formate stain; 18 Å map; crystal structures and homology models docked. The settings on record: both partners purified.
The target in test [3] is T2, Mcm2. The description is as above. Conditions: both partners purified.
Test [4] deals with B1. Described as above. Conditions: both partners purified.

Take “Cdc45/Mcm2-7/GINS (CMG) helicase (from UniProt P49735 1-887; Q9XYU1 1-819; Q26454 1-866; Q9VGW6 1-733; Q9V461 1-817; Q9XYU0 1-720; Q9W0I7 1-202; Q9VQY9 1-203; Q9VBI1 1-228; O96989 1-575) (complex)”: in test [1], the percent of CMG particles in dimers was found to be 5% and the stoichiometry N (as a rule, the number of molecules, sites or subunits per partner or assembly) worked out at 2. Take B1: the binding result in test [2] and in test [3] was “binds” throughout. As to B2, in test [4], the binding result is on record as “binds”.

The values are drawn from publication PMC4359367, “DNA binding polarity, dimerization, and ATPase ring remodeling in the CMG helicase of the eukaryotic replisome” (eLife, 2014).
